Reference: paper PMC2119095

Target: Ld class I MHC molecule of the mouse, properly folded form detected by mAb 30-5-7 (mouse)
Test: radioligand binding + co-IP

Chain of Ld class I MHC molecule of the mouse, properly folded form detected by mAb 30-5-7 (mouse) (P01897 25-362): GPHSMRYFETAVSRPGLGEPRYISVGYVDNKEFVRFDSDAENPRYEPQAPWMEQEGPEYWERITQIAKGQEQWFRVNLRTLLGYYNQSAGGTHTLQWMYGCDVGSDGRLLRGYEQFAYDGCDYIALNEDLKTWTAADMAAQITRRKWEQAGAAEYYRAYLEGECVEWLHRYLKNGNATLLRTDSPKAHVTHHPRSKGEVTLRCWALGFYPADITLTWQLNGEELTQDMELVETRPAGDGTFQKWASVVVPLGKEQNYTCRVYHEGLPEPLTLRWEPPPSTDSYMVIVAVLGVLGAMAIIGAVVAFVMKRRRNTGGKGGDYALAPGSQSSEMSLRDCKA

Substance: murine CMV peptide (pp89, 168-176)
- percent of the FCS control (cells in serum-free medium during the 4 h assay): 85%
- percent of the surface plus lysate peptide binding accounted for by surface Ld: 80%
